Reference: the supplement of paper PMC7125110
± gives the standard error. For part of these data: Fewer inactive variants are shown than the library holds.

B1: glmS ribozyme (parent)
chain: AUAAAAGCGCCAGAACUACAGAAAUGUAGUUGACGAGGAGGAGGUUUAUCGAAUUUUCGGCGGAUGCCUCCAAA

How the values were obtained:
Conditions in all cases: with glucosamine-6-phosphate
[1] = variants of: B1; test: kcat; higher = faster cleavage; RNA array
In short: (§1)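 Glucosamine-6-phosphate (40 μM to 10 mM) in HEPES/KCl/Mg(OAc)2 buffer was flowed over sequenced MiSeq chips, and tiles were imaged over ~14 h. Barcoded ribozyme variants there had been transcribed in situ by E. coli RNA polymerase and were tracked through a hybridised Cy3 probe at 37 °C. One- or two-exponential decay fits to per-tile medians, normalised to baseline and to non-cleaving reference variants, gave kobs. kcat and KM came from weighted Michaelis–Menten fits across concentrations.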

[2] = variants of: B1; test: KM; higher = weaker cofactor use; RNA array
In short: as §1

[3] = variants of: B1; test: self-cleavage kobs at 40 uM GlcN6P; higher = faster cleavage; RNA array
In short: as §1

[4] = variants of: B1; test: self-cleavage kobs at 160 uM GlcN6P; higher = faster cleavage; RNA array
In short: as §1

[5] = variants of: B1; test: self-cleavage kobs at 640 uM GlcN6P; higher = faster cleavage; RNA array
In short: as §1

[6] = variants of: B1; test: self-cleavage kobs at 2500 uM GlcN6P; higher = faster cleavage; RNA array
In short: as §1

[7] = variants of: B1; test: self-cleavage kobs at 10000 uM GlcN6P; higher = faster cleavage; RNA array
In short: as §1

A14U U54C C67U
kcat [1]: 0.00203 ± 0.00034 s⁻¹
KM [2]: 1680 ± 410 µM
self-cleavage kobs at 40 uM GlcN6P [3]: 5.21e-05 ± 1.9e-05 s⁻¹
self-cleavage kobs at 160 uM GlcN6P [4]: 0.000164 ± 2.3e-05 s⁻¹
self-cleavage kobs at 640 uM GlcN6P [5]: 0.000887 ± 0.00023 s⁻¹
self-cleavage kobs at 2500 uM GlcN6P [6]: 0.00131 ± 0.00025 s⁻¹
self-cleavage kobs at 10000 uM GlcN6P [7]: 0.00163 ± 0.0003 s⁻¹

C16G U47G
kcat [1]: 0.000729 ± 0.00014 s⁻¹
KM [2]: 1210 ± 400 µM
self-cleavage kobs at 160 uM GlcN6P [4]: 7.03e-05 ± 1.6e-05 s⁻¹
self-cleavage kobs at 640 uM GlcN6P [5]: 0.000307 ± 4.8e-05 s⁻¹
self-cleavage kobs at 2500 uM GlcN6P [6]: 0.000604 ± 0.0001 s⁻¹
self-cleavage kobs at 10000 uM GlcN6P [7]: 0.000565 ± 0.0001 s⁻¹

A39C C70U
kcat [1]: 0.000652 ± 0.00018 s⁻¹
KM [2]: 1210 ± 530 µM
self-cleavage kobs at 40 uM GlcN6P [3]: 4.36e-05 ± 6.9e-06 s⁻¹
self-cleavage kobs at 160 uM GlcN6P [4]: 7.31e-05 ± 9.7e-06 s⁻¹
self-cleavage kobs at 640 uM GlcN6P [5]: 0.00019 ± 2.5e-05 s⁻¹
self-cleavage kobs at 2500 uM GlcN6P [6]: 0.000461 ± 8.2e-05 s⁻¹
self-cleavage kobs at 10000 uM GlcN6P [7]: 0.000616 ± 7.3e-05 s⁻¹

G32A U45A
kcat [1]: 0.00555 ± 0.00055 s⁻¹
KM [2]: 2580 ± 370 µM
self-cleavage kobs at 40 uM GlcN6P [3]: 9.16e-05 ± 1.5e-05 s⁻¹
self-cleavage kobs at 160 uM GlcN6P [4]: 0.000267 ± 6.7e-05 s⁻¹
self-cleavage kobs at 640 uM GlcN6P [5]: 0.00117 ± 0.00024 s⁻¹
self-cleavage kobs at 2500 uM GlcN6P [6]: 0.003 ± 0.001 s⁻¹
self-cleavage kobs at 10000 uM GlcN6P [7]: 0.00438 ± 0.00057 s⁻¹

A33C G40A
kcat [1]: 2.31e-05 ± 2.6e-06 s⁻¹
KM [2]: 4070 ± 1400 µM

G59U C61A C67A
kcat [1]: 1.63e-05 ± 4.2e-06 s⁻¹

G29A U55G
kcat [1]: 0.00132 ± 0.00029 s⁻¹
KM [2]: 2980 ± 960 µM
self-cleavage kobs at 160 uM GlcN6P [4]: 5.56e-05 ± 1.3e-05 s⁻¹
self-cleavage kobs at 640 uM GlcN6P [5]: 0.000305 ± 6.3e-05 s⁻¹
self-cleavage kobs at 2500 uM GlcN6P [6]: 0.000622 ± 0.00011 s⁻¹
self-cleavage kobs at 10000 uM GlcN6P [7]: 0.000954 ± 0.00021 s⁻¹

U54G C58U
kcat [1]: 0.000129 ± 7.5e-06 s⁻¹
KM [2]: 6130 ± 820 µM
self-cleavage kobs at 2500 uM GlcN6P [6]: 3.75e-05 ± 1.2e-05 s⁻¹
self-cleavage kobs at 10000 uM GlcN6P [7]: 7.98e-05 ± 9.4e-06 s⁻¹

U47G A64G
kcat [1]: 0.0089 ± 0.0018 s⁻¹
KM [2]: 1570 ± 460 µM
self-cleavage kobs at 40 uM GlcN6P [3]: 0.000278 ± 4.5e-05 s⁻¹
self-cleavage kobs at 160 uM GlcN6P [4]: 0.000742 ± 0.00017 s⁻¹
self-cleavage kobs at 640 uM GlcN6P [5]: 0.00203 ± 0.00049 s⁻¹
self-cleavage kobs at 2500 uM GlcN6P [6]: 0.00542 ± 0.0013 s⁻¹
self-cleavage kobs at 10000 uM GlcN6P [7]: 0.00828 ± 0.0015 s⁻¹

C50A C68G
kcat [1]: 5.05e-05 ± 1.7e-05 s⁻¹
self-cleavage kobs at 40 uM GlcN6P [3]: 2.54e-05 ± 1e-05 s⁻¹
self-cleavage kobs at 160 uM GlcN6P [4]: 6.35e-05 ± 1.2e-05 s⁻¹
self-cleavage kobs at 640 uM GlcN6P [5]: 8.11e-05 ± 1.6e-05 s⁻¹
self-cleavage kobs at 2500 uM GlcN6P [6]: 5.89e-05 ± 1e-05 s⁻¹

A15U A39C
kcat [1]: 0.00112 ± 0.00025 s⁻¹
KM [2]: 1960 ± 980 µM
self-cleavage kobs at 40 uM GlcN6P [3]: 3.4e-05 ± 6.3e-06 s⁻¹
self-cleavage kobs at 640 uM GlcN6P [5]: 0.000287 ± 3.8e-05 s⁻¹
self-cleavage kobs at 2500 uM GlcN6P [6]: 0.000499 ± 5.7e-05 s⁻¹
self-cleavage kobs at 10000 uM GlcN6P [7]: 0.00102 ± 7.3e-05 s⁻¹

G38U U49A C67A
kcat [1]: 1.26e-05 ± 4.6e-06 s⁻¹

U30G A39C
kcat [1]: 0.00157 ± 0.00013 s⁻¹
KM [2]: 2010 ± 270 µM
self-cleavage kobs at 40 uM GlcN6P [3]: 3.28e-05 ± 5.7e-06 s⁻¹
self-cleavage kobs at 160 uM GlcN6P [4]: 0.000114 ± 1.6e-05 s⁻¹
self-cleavage kobs at 640 uM GlcN6P [5]: 0.000396 ± 3.6e-05 s⁻¹
self-cleavage kobs at 2500 uM GlcN6P [6]: 0.000787 ± 7.3e-05 s⁻¹
self-cleavage kobs at 10000 uM GlcN6P [7]: 0.00139 ± 0.00011 s⁻¹

G59A C68A
kcat [1]: < 1e-05 s⁻¹
self-cleavage kobs at 40 uM GlcN6P [3]: < 1e-05 s⁻¹

G38U U54C
kcat [1]: < 1e-05 s⁻¹
self-cleavage kobs at 40 uM GlcN6P [3]: < 1e-05 s⁻¹
self-cleavage kobs at 160 uM GlcN6P [4]: < 1e-05 s⁻¹
self-cleavage kobs at 640 uM GlcN6P [5]: < 1e-05 s⁻¹

A14U A33U
kcat [1]: 0.000182 ± 2.6e-05 s⁻¹
self-cleavage kobs at 2500 uM GlcN6P [6]: 2.81e-05 ± 1e-05 s⁻¹
self-cleavage kobs at 10000 uM GlcN6P [7]: 7.63e-05 ± 9.8e-06 s⁻¹
